Laboratory results as given in the supplement of paper PMC10567573.

B1: TRAF3IP2 (parent)
chain: KQGSMNFRFIPVLFPNAKKEHVPT

Variants of: B1
Experiment: protein stability index of a GFP-peptide fusion (GPS, HEK-293T) (PSI 1-6); higher = more stable
Conditions: c terminus: a fixed tail appended
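Note: lentivirally expressed fusions sorted by FACS into six bins by GFP to DsRed ratio, PSI derived from sequencing read proportions per bin multiplied by bin number.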

| Variant | protein stability index |
| --- | --- |
| KQGSMMFRFIPVLFPNAKKEHVPT | 1.58 |
| KQGSMFFRFIPVLFPNAKKEHVPT | 1.74 |
| KQGSMPFRFIPVLFPNAKKEHVPT | 2.44 |
| KQGSMSFRFIPVLFPNAKKEHVPT | 1.96 |
| KQGSMIFRFIPVLFPNAKKEHVPT | 2.15 |
| KQGSMRFRFIPVLFPNAKKEHVPT | 1.66 |
| KQGSMTFRFIPVLFPNAKKEHVPT | 1.96 |
| KQGSMDFRFIPVLFPNAKKEHVPT | 1.89 |
| KQGSMLFRFIPVLFPNAKKEHVPT | 1.81 |
| KQGSMVFRFIPVLFPNAKKEHVPT | 1.93 |
| KQGSMQFRFIPVLFPNAKKEHVPT | 1.81 |
| KQGSMCFRFIPVLFPNAKKEHVPT | 1.67 |
| KQGSMAFRFIPVLFPNAKKEHVPT | 1.76 |
| KQGSMGFRFIPVLFPNAKKEHVPT | 1.56 |
| KQGSMKFRFIPVLFPNAKKEHVPT | 1.6 |
| KQGSMYFRFIPVLFPNAKKEHVPT | 2.14 |
| KQGSMWFRFIPVLFPNAKKEHVPT | 1.83 |
| KQGSMEFRFIPVLFPNAKKEHVPT | 2.1 |
| KQGSMHFRFIPVLFPNAKKEHVPT | 1.72 |
| KQGSMNFPFIPVLFPNAKKEHVPT | 2.68 |
| KQGSMNFTFIPVLFPNAKKEHVPT | 2.04 |
| KQGSMNFDFIPVLFPNAKKEHVPT | 3.3 |
| KQGSMNFNFIPVLFPNAKKEHVPT | 2.8 |
| KQGSMNFSFIPVLFPNAKKEHVPT | 2.39 |

| Variant | protein stability index |
| --- | --- |
| KQGSMNFYFIPVLFPNAKKEHVPT | 2.09 |
| KQGSMNFAFIPVLFPNAKKEHVPT | 1.78 |
| KQGSMNFGFIPVLFPNAKKEHVPT | 1.9 |
| KQGSMNFVFIPVLFPNAKKEHVPT | 2.02 |
| KQGSMNFCFIPVLFPNAKKEHVPT | 2.52 |
| KQGSMNFIFIPVLFPNAKKEHVPT | 2.88 |
| KQGSMNFWFIPVLFPNAKKEHVPT | 2.44 |
| KQGSMNFMFIPVLFPNAKKEHVPT | 1.88 |
| KQGSMNFQFIPVLFPNAKKEHVPT | 3.08 |
| KQGSMNFEFIPVLFPNAKKEHVPT | 3.28 |
| KQGSMNFLFIPVLFPNAKKEHVPT | 2.22 |
| KQGSMNFHFIPVLFPNAKKEHVPT | 2.41 |
| KQGSMNFFFIPVLFPNAKKEHVPT | 1.61 |
| KQGSMNFKFIPVLFPNAKKEHVPT | 2.61 |
| KQGSMNFRFIVVLFPNAKKEHVPT | 2.91 |
| KQGSMNFRFIFVLFPNAKKEHVPT | 3.53 |
| KQGSMNFRFILVLFPNAKKEHVPT | 2.75 |
| KQGSMNFRFIIVLFPNAKKEHVPT | 3.73 |
| KQGSMNFRFISVLFPNAKKEHVPT | 1.36 |
| KQGSMNFRFIAVLFPNAKKEHVPT | 2.39 |
| KQGSMNFRFICVLFPNAKKEHVPT | 3.83 |
| KQGSMNFRFIWVLFPNAKKEHVPT | 2.25 |
| KQGSMNFRFIRVLFPNAKKEHVPT | 2.14 |
| KQGSMNFRFIQVLFPNAKKEHVPT | 1.85 |

| Variant | protein stability index |
| --- | --- |
| KQGSMNFRFIMVLFPNAKKEHVPT | 2.98 |
| KQGSMNFRFIYVLFPNAKKEHVPT | 3.97 |
| KQGSMNFRFIEVLFPNAKKEHVPT | 1.45 |
| KQGSMNFRFIKVLFPNAKKEHVPT | 2.02 |
| KQGSMNFRFIDVLFPNAKKEHVPT | 2.37 |
| KQGSMNFRFIGVLFPNAKKEHVPT | 2.35 |
| KQGSMNFRFITVLFPNAKKEHVPT | 1.86 |
| KQGSMNFRFINVLFPNAKKEHVPT | 1.7 |
| KQGSMNFRFIHVLFPNAKKEHVPT | 2.14 |
| KQGSMNKRFIPVLFPNAKKEHVPT | 3.06 |
| KQGSMNDRFIPVLFPNAKKEHVPT | 2.91 |
| KQGSMNYRFIPVLFPNAKKEHVPT | 2.59 |
| KQGSMNARFIPVLFPNAKKEHVPT | 2.95 |
| KQGSMNCRFIPVLFPNAKKEHVPT | 2.38 |
| KQGSMNLRFIPVLFPNAKKEHVPT | 1.91 |
| KQGSMNQRFIPVLFPNAKKEHVPT | 3.19 |
| KQGSMNRRFIPVLFPNAKKEHVPT | 2.69 |
| KQGSMNIRFIPVLFPNAKKEHVPT | 2.12 |
| KQGSMNWRFIPVLFPNAKKEHVPT | 2.23 |
| KQGSMNHRFIPVLFPNAKKEHVPT | 2.87 |
| KQGSMNGRFIPVLFPNAKKEHVPT | 3.01 |
| KQGSMNERFIPVLFPNAKKEHVPT | 3.67 |
| KQGSMNTRFIPVLFPNAKKEHVPT | 2.73 |
| KQGSMNSRFIPVLFPNAKKEHVPT | 3.12 |

| Variant | protein stability index |
| --- | --- |
| KQGSMNVRFIPVLFPNAKKEHVPT | 2.13 |
| KQGSMNNRFIPVLFPNAKKEHVPT | 2.92 |
| KQGSMNPRFIPVLFPNAKKEHVPT | 3.31 |
| KQGSMNMRFIPVLFPNAKKEHVPT | 2.32 |
| KQGSCNFRFIPVLFPNAKKEHVPT | 1.98 |
| KQGSNNFRFIPVLFPNAKKEHVPT | 2.44 |
| KQGSHNFRFIPVLFPNAKKEHVPT | 2.15 |
| KQGSANFRFIPVLFPNAKKEHVPT | 2.21 |
| KQGSLNFRFIPVLFPNAKKEHVPT | 1.97 |
| KQGSGNFRFIPVLFPNAKKEHVPT | 2.43 |
| KQGSSNFRFIPVLFPNAKKEHVPT | 2.04 |
| KQGSYNFRFIPVLFPNAKKEHVPT | 1.87 |
| KQGSKNFRFIPVLFPNAKKEHVPT | 2.8 |
| KQGSPNFRFIPVLFPNAKKEHVPT | 2.1 |
| KQGSRNFRFIPVLFPNAKKEHVPT | 2.2 |
| KQGSFNFRFIPVLFPNAKKEHVPT | 1.52 |
| KQGSINFRFIPVLFPNAKKEHVPT | 2.01 |
| KQGSTNFRFIPVLFPNAKKEHVPT | 2.5 |
| KQGSENFRFIPVLFPNAKKEHVPT | 2.88 |
| KQGSWNFRFIPVLFPNAKKEHVPT | 1.8 |
| KQGSVNFRFIPVLFPNAKKEHVPT | 1.91 |
| KQGSDNFRFIPVLFPNAKKEHVPT | 3.35 |
